The assay concerns the target T1, chio_human CHN2 (UniProt P52757).
T1 sequence: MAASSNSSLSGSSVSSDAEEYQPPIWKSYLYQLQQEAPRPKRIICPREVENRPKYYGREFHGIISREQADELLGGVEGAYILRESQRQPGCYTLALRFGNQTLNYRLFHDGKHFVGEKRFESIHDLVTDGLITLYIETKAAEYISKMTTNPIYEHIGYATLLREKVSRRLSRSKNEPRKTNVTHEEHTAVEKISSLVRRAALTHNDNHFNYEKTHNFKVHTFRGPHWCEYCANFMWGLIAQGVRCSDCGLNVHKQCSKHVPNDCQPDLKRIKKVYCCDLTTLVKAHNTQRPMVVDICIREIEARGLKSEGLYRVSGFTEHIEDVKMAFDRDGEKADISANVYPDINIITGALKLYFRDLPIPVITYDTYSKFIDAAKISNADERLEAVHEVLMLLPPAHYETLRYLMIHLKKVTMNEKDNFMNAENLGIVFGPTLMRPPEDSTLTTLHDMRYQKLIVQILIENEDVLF

As to “Ras-related C3 botulinum toxin substrate 1 (Homo sapiens) (from UniProt P63000) T17N”, the “effect of a mutation on the interaction” value is given as “disrupting interaction”.

Turning to “Ras-related C3 botulinum toxin substrate 1 (Homo sapiens) (from UniProt P63000) G12V”, the “effect of a mutation on the interaction” value was “increasing interaction”.

These data come from IntAct's records for PubMed 16628218.
